Data from patent US20120237496.

T1: Peptide-6a
T1 chain: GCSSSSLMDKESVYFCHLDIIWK

T2: Peptide-5 (not fully specified)
T2 chain: CDRVYIHPFHLK


What was measured:
Peptide-6a = target: T1, Peptide-6a
Peptide-5 = target: T2, Peptide-5

Protein | activity relative to G399V/G714K (B1) (Peptide-4) [fold] | activity relative to G399V/G714K (B1) (Peptide-6a) [fold] | activity relative to G399V/G714K (B1) (Peptide-5) [fold] | activity relative to G399V/G714K (B1) (Peptide-7) [fold] | activity relative to G399V/G714K (B1) (Peptide-2) [fold] | activity relative to G399V/G714K (B1) (Peptide-1) [fold]
D1 (protein) YPYDVPDYAYPYDVPDYAYPYDVPDYAGSYDDGICKSSDCIKSAARLIQNMDATTEPCTDFFKYACGGWLKRNVIPETSSRYGNFDILRDELEVVLKDVLQEPKTEDIVAVQKAKALYRSCINESAIDSRGGEPLLKLLPDIYGWPVATENWEQKYGASWTAEKAIAQLNSKYGKKVLINLFVGTDDKNSVNHVIHIDQPRLGLPSRDYYECTGIYKEACTAYVDFMISVARLIRQEERLPIDENQLALEMNKVMELEKEIANATSKPEDRNDPMLLYNKMTLAQIQNNFSLEINGKPFSWLNFTNEIMSTVNISITNEEDVVVYAPEYLTKLKPILTKYSARDLQNLMSWRFIMDLVSSLSRTYKESRNAFRKALYVTTSETATWRRCANYVNGNMMNAVGRLYVEAAFAGESKHVVEDLIAQIREVFIQTLDDLTWMDAETKKRAEEKALAIKERIGYPDDIVSNDNKLNNEYLELNYKEDEYFENIIQNLKFSQSKQLKKLREKVDKDEWISGAAVVNAFYSSGRNQIVFPAGILQPPFFSAQQSNSLNYGGIGMVIGHEITHGFFDNGRNPNKDDDLVDWWTQQSASNFKEQSQCMVYQYGNFSWDLAGGQHLNGINTLGENIADNGGLGQAYRAYQNYIKKNGEEKLLPGLDLNHKQLFFLNFAQVWCGTYRPEYAVNSIKTDVHSPKNFRIIGTLQNSAEFSEAFHCRKNSYMNPEKKCRVW | 0.95 | 0.12 | 0.08 | 0.61 | 1.24 | 1.11
D3 (protein) YPYDVPDYAYPYDVPDYAYPYDVPDYAGSYDDGICKSSDCIKSAARLIQNMDATTEPCTDFFKYACGGWLKRNVIPETSSRYGNFDILRDELEVVLKDVLQEPKTEDIVAVQKAKALYRSCINESAIDSRGGEPLLKLLPDIYGWPVATENWEQKYGASWTAEKAIAQLNSKYGKKVLINLFVGTDDKNSVNHVIHIDQPRLGLPSRDYYECTGIYKEACTAYVDFMISVARLIRQEERLPIDENQLALEMNKVMELEKEIANATAKPEDRNDPMLLYNKMTLAQIQNNFSLEINGKPFSWLNFTNEIMSTVNISITNEEDVVVYAPEYLTKLKPILTKYSARDLQNLMSWRFIMDLVSSLSRTYKESRNAFRKALYVTTSETATWRRCANYVNGNMMNAVGRLYVEAAFAGESKHVVEDLIAQIREVFIQTLDDLTWMDAETKKRAEEKALAIKERIGYPDDIVSNDNKLNNEYLELNYKEDEYFENIIQNLKFSQSKQLKKLREKVDKDEWISGAAVVNAFYSSGRNQIVFPAGILQPPFFSAQQSNSLNYGGIGMVIGHEITHGFFDNGRNPNKDDDLVDWWTQQSASNFKEQSQCMVYQYGNFSWDLAGGQHLNGINTLQENIADNGGLGQAYRAYQNYIKKNGEEKLLPGLDLNHKQLFFLNFAQVWCGTYRPEYAVNSIKTDVHSPKNFRIIGTLQNSAEFSEAFHCRKNSYMNPEKKCRVW | 1.04 | 0.47 | 0.1 | 0.95 | 3.42 | 3.11
D4 (protein) YPYDVPDYAYPYDVPDYAYPYDVPDYAGSYDDGICKSSDCIKSAARLIQNMDATTEPCTDFFKYACGGWLKRNVIPETSSRYGNFDILRDELEVVLKDVLQEPKTEDIVAVQKAKALYRSCINESAIDSRGGEPLLKLLPDIYGWPVATENWEQKYGASWTAEKAIAQLNSKYGKKVLINLFVGTDDKNSVNHVIHIDQPRLGLPSRDYYECTGIYKEACTAYVDFMISVARLIRQEERLPIDENQLALEMNKVMELEKEIANATSKPEDRNDPMLLYNKMTLAQIQNNFSLEINGKPFSWLNFTNEIMSTVNISITNEEDVVVYAPEYLTKLKPILTKYSARDLQNLMSWRFIMGLVSSLSRTYKESRNAFRKALYVTTSETATWRRCANYVNGNMMNAVGRLYVEAAFAGESKHVVEDLIAQIREVFIQTLDDLTWMDAETKKRAEEKALAIKERIGYPDDIVSNDNKLNNEYLELNYKEDEYFENIIQNLKFSQSKQLKKLREKVDKDEWISGAAVVNAFYSSGRNQIVFPAGILQPPFFSAQQSNSLNYGGIGMVIGHEITHGFFDNGRNPNKDDDLVDWWTQQSASNFKEQSQCMVYQYGNFSWDLAGGQHLNGINTLGENIADNGGLGQAYRAYQNYIKKNGEEKLLPGLDLNHKQLFFLNFAQVWCGTYRPEYAVNSIKTDVHSPKNFRIIGTLQNSAEFSEAFHCRKNSYMNPEKKCRVW | 0.91 | 0.28 | 0.08 | 0.51 | 2.71 | 2.43
D5 (protein) YPYDVPDYAYPYDVPDYAYPYDVPDYAGSYDDGICKSSDCIKSAARLIQNMDATTEPCTDFFKYACGGWLKRNVIPETSSRYGNFDILRDELEVVLKDVLQEPKTEDIVAVQKAKALYRSCINESAIDSRGGEPLLKLLPDIYGWPVATENWEQKYGASWTAEKAIAQLNSKYGKKVLINLFVGTDDKNSVNHVIHIDQPRLGLPSRDYYECTGIYKEACTAYVDFMISVARLIRQEERLPIDENQLALEMNKVMELEKEIANATSKPEDRNDPMLLYNKMTLAQIQNNFSLEINGKPFSWLNFTNEIMSTVNISITNEEDVVVYAPEYLTKLKPILTKYSARDLQNLMSWRFIMGLVSSLSRTYKESRNAFRKALYVTTSETATWRRCANYVNGNMMNAVGRLYVEAAFAGESKHVVEDLIAQIREVFIQTLDDLTWMDAETKKRAEEKALAIKERIGYPDDIVSNDNKLNNEYLELNYKEDEYFENIIQNLKFSQSKQLKKLREKVDKDEWISGAAVVNAFYSSGRNQIVFPAGILQPPFFSAQQSNSLNYGGIGMVIGHEITHGFFDNGRNPNKDDDLVDWWTQQSASNFKEQSQCMVYQYGNFSWDLAGGQHLNGINTLQENIADNGGLGQAYRAYQNYIKKNGEEKLLPGLDLNHKQLFFLNFAQVWCGTYRPEYAVNSIKTDVHSPKNFRIIGTLQNSAEFSEAFHCRKNSYMNPEKKCRVW | 0.9 | 0.35 | 0.08 | 0.9 | 3.37 | 2.94
D2 (protein) YPYDVPDYAYPYDVPDYAYPYDVPDYAGSYDDGICKSSDCIKSAARLIQNMDATTEPCTDFFKYACGGWLKRNVIPETSSRYGNFDILRDELEVVLKDVLQEPKTEDIVAVQKAKALYRSCINESAIDSRGGEPLLKLLPDIYGWPVATENWEQKYGASWTAEKAIAQLNSKYGKKVLINLFVGTDDKNSVNHVIHIDQPRLGLPSRDYYECTGIYKEACTAYVDFMISVARLIRQEERLPIDENQLALEMNKVMELEKEIANATAKPEDRNDPMLLYNKMTLAQIQNNFSLEINGKPFSWLNFTNEIMSTVNISITNEEDVVVYAPEYLTKLKPILTKYSARDLQNLMSWRFIMGLVSSLSRTYKESRNAFRKALYVTTSETATWRRCANYVNGNMMNAVGRLYVEAAFAGESKHVVEDLIAQIREVFIQTLDDLTWMDAETKKRAEEKALAIKERIGYPDDIVSNDNKLNNEYLELNYKEDEYFENIIQNLKFSQSKQLKKLREKVDKDEWISGAAVVNAFYSSGRNQIVFPAGILQPPFFSAQQSNSLNYGGIGMVIGHEITHGFFDNGRNPNKDDDLVDWWTQQSASNFKEQSQCMVYQYGNFSWDLAGGQHLNGINTLGENIADNGGLGQAYRAYQNYIKKNGEEKLLPGLDLNHKQLFFLNFAQVWCGTYRPEYAVNSIKTDVHSPKNFRIIGTLQNSAEFSEAFHCRKNSYMNPEKKCRVW | 0.9 | 0.08 | 0.08 | 0.4 | 1.06 | 0.83
